Test results: US6340461B1 (priority 1996, dated 2002)

How the values were obtained:
[1] = set-up: species or system New Zealand white rabbits; settings: rabbit, in vivo
[2] = set-up: species or system baboons; settings: in vivo, sc
[3] = target: T cell receptor Vβ11 on murine tumor-draining lymph node T cells (mouse); assay: cell-based or functional assay
[4] = target: T cell receptor Vβ12 on murine tumor-draining lymph node T cells (mouse); assay: cell-based or functional assay
[5] = target: T cell receptor Vβ13 on murine tumor-draining lymph node T cells (mouse); assay: cell-based or functional assay
[6] = target: T cell receptor Vβ14 on murine tumor-draining lymph node T cells (mouse); assay: cell-based or functional assay
[7] = target: T cell receptor Vβ17 on murine tumor-draining lymph node T cells (mouse); assay: cell-based or functional assay
[8] = target: T cell receptor Vβ2 on murine tumor-draining lymph node T cells (mouse); assay: cell-based or functional assay
[9] = target: T cell receptor Vβ3 on murine T cells (mouse); assay: cell-based or functional assay
[10] = target: T cell receptor Vβ5.1, 5.2 on murine tumor-draining lymph node T cells (mouse); assay: cell-based or functional assay
[11] = target: T cell receptor Vβ6 on murine tumor-draining lymph node T cells (mouse); assay: cell-based or functional assay
[12] = target: T cell receptor Vβ7 on murine tumor-draining lymph node T cells (mouse); assay: cell-based or functional assay
[13] = target: T cell receptor Vβ8.2 on murine T cells (mouse); assay: cell-based or functional assay
[14] = target: T cell receptor Vβ9 on murine tumor-draining lymph node T cells (mouse); assay: cell-based or functional assay
[15] = target: T cell receptor Vβ8.1 on murine T cells (mouse); assay: cell-based or functional assay
[16] = target: T cell receptor Vβ8.3 on murine T cells (mouse); assay: cell-based or functional assay

CC(C)Cc1ccc(C(C)C(=O)O)cc1 (stereo not drawn) [Ibuprofen]
effect on SEB induced fever and anorexia [1]: reduced febrile responses exceeding 105° F. and shortened the period of anorexia and inanition
effect on SEB induced anorexia and malaise [2]: abrogate some of the anorexia and malaise

Staphylococcus aureus enterotoxin A (SEA) (from UniProt P0A0L2 25-257)
% of Total T Cells (Vβ use of tumor-draining LN T cells stimulated with SEA) [3]: 34.3%
% of Total T Cells (Vβ use of tumor-draining LN T cells stimulated with SEA) [4]: 7.4%
% of Total T Cells (Vβ use of tumor-draining LN T cells stimulated with SEA) [5]: 1.5%
% of Total T Cells (Vβ use of tumor-draining LN T cells stimulated with SEA) [6]: < 1%
% of Total T Cells (Vβ use of tumor-draining LN T cells stimulated with SEA) [7]: 0%
% of Total T Cells (Vβ use of tumor-draining LN T cells stimulated with SEA) [8]: < 1%
% of Total T Cells (Vβ use of tumor-draining LN T cells stimulated with SEA) [9]: 29.9%
% of Total T Cells (Vβ use of tumor-draining LN T cells stimulated with SEA) [10]: < 1%
% of Total T Cells (Vβ use of tumor-draining LN T cells stimulated with SEA) [11]: < 1%
% of Total T Cells (Vβ use of tumor-draining LN T cells stimulated with SEA) [12]: < 1%
% of Total T Cells (Vβ use of tumor-draining LN T cells stimulated with SEA) [13]: 1.5%
% of Total T Cells (Vβ use of tumor-draining LN T cells stimulated with SEA) [14]: 0%

staphylococcal enterotoxin B (SEB) (from UniProt P01552 28-266)
% of Total T Cells (Vβ use of tumor-draining LN T cells stimulated with SEB) [3]: 2.9%
% of Total T Cells (Vβ use of tumor-draining LN T cells stimulated with SEB) [4]: 0%
% of Total T Cells (Vβ use of tumor-draining LN T cells stimulated with SEB) [5]: < 1%
% of Total T Cells (Vβ use of tumor-draining LN T cells stimulated with SEB) [6]: 0%
% of Total T Cells (Vβ use of tumor-draining LN T cells stimulated with SEB) [8]: 0%
% of Total T Cells (Vβ use of tumor-draining LN T cells stimulated with SEB) [9]: 32.5%
% of Total T Cells (Vβ use of tumor-draining LN T cells stimulated with SEB) [10]: 1.2%
% of Total T Cells (Vβ use of tumor-draining LN T cells stimulated with SEB) [11]: 0%
% of Total T Cells (Vβ use of tumor-draining LN T cells stimulated with SEB) [12]: < 1%
% of Total T Cells (Vβ use of tumor-draining LN T cells stimulated with SEB) [15]: 4.8%
% of Total T Cells (Vβ use of tumor-draining LN T cells stimulated with SEB) [13]: 15%
% of Total T Cells (Vβ use of tumor-draining LN T cells stimulated with SEB) [16]: 19.8%
% of Total T Cells (Vβ use of tumor-draining LN T cells stimulated with SEB) [14]: 0%
